# Results as given in article PMC11731035.
# Biological target: plastidic 70S ribosomes of Arabidopsis thaliana (Arabidopsis thaliana (endogenous))
# Assay: co-sedimentation; lysate of Col-0 plants grown at 21 °C layered on a 25% sucrose cushion, 173,292 x g for 20 min; immunoblot of total, supernatant and ribosomal pellet, quantified as R/(R+S); standard ribosome buffer (Mg2+), also with 800 mM KCl (high salt) or 1 mM puromycin
row,fraction co-sedimented with ribosomes [%],Substance
1,8,"Trigger factor 1 (Tig1), Arabidopsis thaliana chloroplast (natural protein)"
2,25,"Trigger factor 2 (Tig2), Arabidopsis thaliana chloroplast (natural protein)"
